According to patent publication US20240117043A1 (SHANGHAI JUNSHI BIOSCIENCES, published 2024):

T1: recombinant human HX1 hCD112R Fc (human, UniProt Q6DKI7 41-171, limits assumed)
T1 construct: Coated antigen of the ELISA (Suzhou Junmeng); also called human CD112R; not shown: Fc part
T1 sequence (looked up): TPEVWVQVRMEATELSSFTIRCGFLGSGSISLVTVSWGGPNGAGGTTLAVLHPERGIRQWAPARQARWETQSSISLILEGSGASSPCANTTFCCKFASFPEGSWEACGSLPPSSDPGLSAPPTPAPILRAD

T2: recombinant human TIGIT (His Tag) (human, UniProt Q495A1 22-141)
T2 construct: Coated antigen of the ELISA; not shown: His tag
T2 sequence (looked up): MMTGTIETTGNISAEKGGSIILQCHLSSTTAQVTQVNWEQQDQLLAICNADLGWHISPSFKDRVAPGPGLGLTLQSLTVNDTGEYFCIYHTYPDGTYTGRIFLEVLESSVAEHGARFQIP

T3: human CD112R-mFc protein (human, UniProt Q6DKI7 41-171, limits assumed)
T3 construct: also called human CD112R protein; not shown: mouse Fc (mFc)
T3 sequence (looked up): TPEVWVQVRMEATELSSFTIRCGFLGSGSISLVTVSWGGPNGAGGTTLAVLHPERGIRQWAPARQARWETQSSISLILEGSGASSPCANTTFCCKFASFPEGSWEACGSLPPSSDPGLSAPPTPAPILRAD

B1: bispecific antibody JS-1 (IgG4) (bispecific antibody)
heavy: QVQLVQSGAEVKKPGASVKVSCKTSGYAFTEYTMHWVRQAPGKGLEWMGGINPNTGGTTYNQKFQGRVTLTVDKSSSTAYMELSSLRSEDTVVYYCAKLLRLMYYFDYWGQGTLVTVSSASTKGPSVFPLAPCSRSTSESTAALGCLVKDYFPEPVTVSWNSGALTSGVHTFPAVLQSSGLYSLSSVVTVPSSSLGTKTYTCNVDHKPSNTKVDKRVESKYGPPCPPCPAPEFLGGPSVFLFPPKPKDTLMISRTPEVTCVVVDVSQEDPEVQFNWYVDGVEVHNAKTKPREEQFNSTYRVVSVLTVLHQDWLNGKEYKCKVSNKGLPSSIEKTISKAKGQPREPQVYTLPPCQEEMTKNQVSLWCLVKGFYPSDIAVEWESNGQPENNYKTTPPVLDSDGSFFLYSRLTVDKSRWQEGNVFSCSVMHEALHNHYTQKSLSLSLGK
light: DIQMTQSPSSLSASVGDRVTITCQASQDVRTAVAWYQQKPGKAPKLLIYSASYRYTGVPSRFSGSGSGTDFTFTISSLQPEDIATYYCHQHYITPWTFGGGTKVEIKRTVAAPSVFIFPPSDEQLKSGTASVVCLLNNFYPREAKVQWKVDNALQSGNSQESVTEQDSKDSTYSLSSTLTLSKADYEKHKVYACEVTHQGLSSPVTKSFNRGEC
chain: DIVMTQSPDSLAVSLGERATINCKASQSVSNDVAWYQQKPGQPPKLLIYYVSHRFTGVPDRFSGSGSGTDFTLTISSLQAEDVAVYFCHQAYRSPWTFGCGTKLEIKGGGGSGGGGSGGGGSGGGGSEVQLVESGGGLVKPGGSLRLSCAASGFTFSSYHMSWVRQAPGKCLELVSAINSNGINTYYLDTVKGRFTISRDNAKNSLYLQMNSLRAEDTAVYYCARHEDYYGFAMDYWGQGTLVTVSSGGGGSGGGGSESKYGPPCPPCPAPEFLGGPSVFLFPPKPKDTLMISRTPEVTCVVVDVSQEDPEVQFNWYVDGVEVHNAKTKPREEQFNSTYRVVSVLTVLHQDWLNGKEYKCKVSNKGLPSSIEKTISKAKGQPREPQVCTLPPSQEEMTKNQVSLSCAVKGFYPSDIAVEWESNGQPENNYKTTPPVLDSDGSFFLVSRLTVDKSRWQEGNVFSCSVMHEALHNRFTQKSLSLSLGK
notes: Three-chain knob-into-hole format: anti-TIGIT Fab arm and anti-CD112R scFv arm, IgG4 Fc
B2: bispecific antibody JS-3 (IgG4) (bispecific antibody)
chain 1: not shown
chain 2: DIVMTQSPDSLAVSLGERATINCKASQSVSNDVAWYQQKPGQPPKLLIYYVSHRFTGVPDRFSGSGSGTDFTLTISSLQAEDVAVYFCHQAYRSPWTFGQGTKLEIKRTVAAPSVFIFPPSDEQLKSGTASVVCLLNNFYPREAKVQWKVDNALQSGNSQESVTEQDSKDSTYSLSSTLTLSKADYEKHKVYACEVTHQGLSSPVTKSFNRGECSGGGSGGGSEGGGSEGGGSEGGGSEGGGSGGGSGEVQLVESGGGLVKPGGSLRLSCAASGFTFSSYHMSWVRQAPGKGLELVSAINSNGINTYYLDTVKGRFTISRDNAKNSLYLQMNSLRAEDTAVYYCARHEDYYGFAMDYWGQGTLVTVSSASTKGPSVFPLAPCSRSTSESTAALGCLVKDYFPEPVTVSWNSGALTSGVHTFPAVLQSSGLYSLSSVVTVPSSSLGTKTYTCNVDHKPSNTKVDKRVESKYGPPCPPCPAPEFLGGPSVFLFPPKPKDTLMISRTPEVTCVVVDVSQEDPEVQFNWYVDGVEVHNAKTKPREEQFNSTYRVVSVLTVLHQDWLNGKEYKCKVSNKGLPSSIEKTISKAKGQPREPQVCTLPPSQEEMTKNQVSLSCAVKGFYPSDIAVEWESNGQPENNYKTTPPVLDSDGSFFLVSRLTVDKSRWQEGNVFSCSVMHEALHNRFTQKSLSLSLGK
notes: Two-chain scFab/scFab knob-into-hole format, IgG4 Fc

What was measured:
[1] = biological target: T1, recombinant human HX1 hCD112R Fc; test: ELISA, plate coated with recombinant human HX1 hCD112R Fc, detection with HRP anti-human IgG4 Fc; unit taken from the concentration axis [3a]
Protocol: 2. Procedures [0255] a. A 96-well plate was coated with 1.0 μg/mL recombinant human HX1 hCD112R Fc (Suzhou Junmeng) as the antigen at 100 μL/well and incubated at 37° C. for 1.5 h. [0256] b. The plate was washed 4 times with 300 μL/well 1×PBST, and 2% BSA was added at 200 μL/well. The plate was blocked at 37° C. for 1.5 h. [0257] c. The plate was washed 4 times with 300 μL/well 1×PBST, and serial dilutions of the bispecific antibodies JS-1,3,5,9 and a negative control: antibody (anti-KLH hIgG4) (initial concentration 3.0 μg/mL, 3-fold serially diluted to 12 concentration points, 100 μL/well) were added. The plate was incubated at 37° C. for 1 h. [0258] d. The plate was washed 4 times with 300 μL/well 1×PBST. [0259] e. 5000-fold diluted horseradish peroxidase (HRP)-conjugated mouse anti-human IgG4 Fc antibody (Southern Biotech, 9200-05) was added at 100 μL/well, and the plate was incubated at 37° C. for 1 h. [0260] f. The plate was washed 4 times with 300 μL/well 1×PBST. [0261] g. 0.1 mg/mL TMB was added at 100 μL/well, and after the plate was incubated at 37° C. for 15 min, a 2 M solution of hydrochloric acid was added at 100 μL/well to stop the reactions. […] The absorbance was measured at 450 nm/620 nm on a microplate reader, and data were analyzed using Graphpad Prism7.

[2] = biological target: T2, recombinant human TIGIT (His Tag); test: ELISA, relative binding activity, sample kept at 40 C for 4 weeks
Protocol: (§1) The antibody samples were exchanged into a pH 5.5 buffer system (20 mM histidine-histidine hydrochloride buffer, 230 mM trehalose) with the concentration of the samples controlled at about 5 mg/mL, and the buffer was aliquoted into vials at 500 μL/vial. The vials were placed in a 40° C. incubator to test stability at 0 W, 2 W and 4 W. Samples were sent for analysis according to Table 2. Stability was assessed by the following parameters: (a) the content of antibody monomers, aggregates or fragments determined by SEC-HPLC (size exclusion chromatography); (b) the molecular weight of the antibody determined by CE-SDS (sodium dodecyl sulfate capillary electrophoresis); and (c) the bioactivity of the antibody determined by an ELISA or reporter gene assay.

[3] = biological target: T1, recombinant human HX1 hCD112R Fc; test: as above
Protocol: as §1

[4] = biological target: T2, recombinant human TIGIT (His Tag); test: ELISA, relative binding activity, sample kept at 40 C for 0 weeks
Protocol: as §1

[5] = biological target: T1, recombinant human HX1 hCD112R Fc; test: as above
Protocol: as §1

[6] = biological target: T2, recombinant human TIGIT (His Tag); test: ELISA, plate coated with recombinant human TIGIT (His Tag), detection with HRP anti-human IgG4 Fc; unit taken from the concentration axis [2a]
Protocol: 2. Procedures [0241] a. A 96-well plate was coated with 1.5 μg/mL recombinant human TIGIT (His Tag) (Suzhou Junmeng) as the antigen at 100 μL/well and incubated at 37° C. for 1.5 h. [0242] b. The plate was washed 4 times with 300 μL/well 1×PBST, and 2% BSA was added at 200 μL/well. The plate was blocked at 37° C. for 1.5 h. [0243] c. The plate was washed 4 times with 300 μL/well 1×PBST, and serial dilutions of the bispecific antibodies JS-1,3,5,9 and a negative control: antibody (anti-KLH hIgG4) (initial concentration 1.0 μg/mL, 3-fold serially diluted to 12 concentration points, 100 μL/well) were added. The plate was incubated at 37° C. for 1 h. [0244] d. The plate was washed 4 times with 300 μL/well 1×PBST. [0245] e. 5000-fold diluted horseradish peroxidase (HRP)-conjugated mouse anti-human IgG4 Fc antibody (Southern Biotech, 9200-05) was added at 100 μL/well, and the plate was incubated at 37° C. for 1 h. […] The plate was washed 4 times with 300 μL/well 1×PBST. [0247] g. 0.1 mg/mL TMB was added at 100 μL/well, and after the plate was incubated at 37° C. for 15 min, a 2 M solution of hydrochloric acid was added at 100 μL/well to stop the reactions. [0248] h. The absorbance was measured at 450 nm/620 nm on a microplate reader, and data were analyzed using Graphpad Prism7.

human CD112R-mFc protein = biological target: T3, human CD112R-mFc protein; test: flow cytometry, blocking of 1 ug/mL CD112R-mFc binding to CHO hCD112 cells
Protocol: CHO hCD112 cells (Chinese hamster ovary cells, human CD112 positive) were incubated with different concentrations of the bispecific antibodies JS-1, JS-3, JS-5 and JS-9 and 1 μg/mL human CD112R-mFc protein at 4° C. for 30 min, then washed twice and incubated with a fluorescence-labeled anti-mouse IgG secondary antibody (1:200) in a dark place at 4° C. for 30 min. Finally, the cells were collected using a flow cytometer (BD Canto II), and the fluorescent antibodies bound to the cell surface were detected. Raw data were analyzed using FlowJo to obtain MFI values, antibody dose-dependent binding curves (FIG. 4) were fitted using GraphPad, and IC50 was calculated. The positive controls were hu52 (a recombinant humanized anti-CD112R monoclonal antibody) and JS-Ref (Hengrui) (an anti-TIGIT/CD112R bispecific antibody of Hengrui, expressed and purified according to the sequence of the patent WO2021180205), and the negative control was an anti-KLH-hIgG1 antibody.

Row | Binder | EC50 [1] [µg/mL] | TIGIT binding activity Elisa (%) [2] [%] | CD112R binding activity Elisa (%) [3] [%] | TIGIT binding activity Elisa (%) [4] [%] | CD112R binding activity Elisa (%) [5] [%] | EC50 [6] [µg/mL] | IC50 (human CD112R-mFc protein) [nM]
1 | B1 | 0.00403 | 97 | 86 | 100 | 101 | 0.0858 | 0.915
2 | B2 | 0.00402 | 84 | 88 | 111 | 102 | 0.106 | 0.696
